Assay [1] concerns the target T1, rHuman IGF-1 sR (IGF-1 sR), CF (R&D Systems Cat#391-GR) (human, UniProt P08069 31-932).
T1 construct: Bought soluble receptor; also called insulin-like growth factor-1 soluble receptor; IGF-R1
The assay is described as follows: ECL (MSD multi-spot), antigen spotted on plate; Fab 8 nM; blank 1188.

In assay [2] the target is T2, Recombinant Human DLL4 (R&D Systems Cat#1506-D4/CF) (human, UniProt Q9NR61 27-524).
T2 construct: Bought protein; also called rHuman DLL4; delta-like protein 4
The description is as above.

Assay [3] deals with T3, rHuman EGF R/Fc Chimera, CF (R&D Systems Cat#344-ER) (human, UniProt P00533 25-645).
T3 construct: Bought protein; also called epidermal growth factor receptor; Fc part of the bought chimera not given
Described as above.

Assay [4] deals with T4, rHuman HGF R/c-MET/Fc Chimera, CF (R&D Systems Cat#358-MT/CF) (human, UniProt P08581 25-932).
T4 construct: Bought protein; also called HGF R/Fc; hepatocyte growth factor receptor; Fc part of the bought chimera not given
The assay is described as above.

For assay [5], the target named is T1, rHuman IGF-1 sR (IGF-1 sR), CF (R&D …). As to the kind of experiment: ECL (MSD multi-spot), antigen spotted on plate; Fab 1.6 nM; blank 648.
Assay [6] concerns the target T2, Recombinant Human DLL4 (R&D Systems …). The assay is described as above.
Assay [7] concerns the target T3, rHuman EGF R/Fc Chimera, CF (R&D …). The assay is described as above.
Assay [8] concerns the target T4, rHuman HGF R/c-MET/Fc Chimera, CF (R&D …). The description is as above.
The target in assay [9] is T1, rHuman IGF-1 sR (IGF-1 sR), CF (R&D …). As to the kind of experiment: ECL (MSD multi-spot), antigen spotted on plate; Fab 40 nM; blank 1229.
Assay [10] has as its target T2, Recombinant Human DLL4 (R&D Systems …). Described as above.
Assay [11] addresses T3, rHuman EGF R/Fc Chimera, CF (R&D …). Described as above.
Assay [12] concerns the target T4, rHuman HGF R/c-MET/Fc Chimera, CF (R&D …). The assay is described as above.
The target in assay [13] is T1, rHuman IGF-1 sR (IGF-1 sR), CF (R&D …). The assay is described as follows: ECL (MSD multi-spot), antigen spotted on plate; Fab 0.32 nM; blank 428.
In assay [14] the target is T2, Recombinant Human DLL4 (R&D Systems …). The description is as above.
Assay [15] addresses T3, rHuman EGF R/Fc Chimera, CF (R&D …). The description is as above.
Assay [16] concerns the target T4, rHuman HGF R/c-MET/Fc Chimera, CF (R&D …). The description is as above.
Assay [17] addresses T1, rHuman IGF-1 sR (IGF-1 sR), CF (R&D …). As to the kind of experiment: ECL (MSD multi-spot), antigen spotted on plate; Fab 200 nM; blank 1659.
In assay [18] the target is T2, Recombinant Human DLL4 (R&D Systems …). Described as above.
Assay [19] deals with T3, rHuman EGF R/Fc Chimera, CF (R&D …). The assay is described as above.
Assay [20] addresses T4, rHuman HGF R/c-MET/Fc Chimera, CF (R&D …). The description is as above.
The target in assay [21] is T1, rHuman IGF-1 sR (IGF-1 sR), CF (R&D …). The assay is described as follows: ECL (MSD multi-spot), antigen spotted on plate; Fab 1000 nM; blank 2142.
For assay [22], the target named is T2, Recombinant Human DLL4 (R&D Systems …). Described as above.
For assay [23], the target named is T3, rHuman EGF R/Fc Chimera, CF (R&D …). The assay is described as above.
Assay [24] addresses T4, rHuman HGF R/c-MET/Fc Chimera, CF (R&D …). The assay is described as above.
Assay [25] has as its target T1, rHuman IGF-1 sR (IGF-1 sR), CF (R&D …). As to the kind of experiment: ECL (MSD multi-spot), antigen spotted on plate; Fab 10 nM; blank 427.
The target in assay [26] is T5, rHuman P-Cadherin/Fc Chimera, CF (R&D Systems Cat#861-PC) (human, UniProt P22223 108-654).
T5 construct: Bought protein; also called CDH3; Fc part of the bought chimera not given
The assay is described as above.

Assay [27] has as its target T2, Recombinant Human DLL4 (R&D Systems …). The assay is described as above.
Assay [28] concerns the target T6, rHuman CD44/Fc Chimera, CF (R&D Systems Cat#3660-CD) (human, UniProt P16070 21-220).
T6 construct: Bought protein; Fc part of the bought chimera not given
The assay is described as above.

Assay [29] deals with T1, rHuman IGF-1 sR (IGF-1 sR), CF (R&D …). The assay is described as follows: ECL (MSD multi-spot), antigen spotted on plate; Fab 1000 nM; blank 1742.
For assay [30], the target named is T5, rHuman P-Cadherin/Fc Chimera, CF (R&D …). The assay is described as above.
Assay [31] addresses T2, Recombinant Human DLL4 (R&D Systems …). Described as above.
Assay [32] concerns the target T6, rHuman CD44/Fc Chimera, CF (R&D Systems …). The assay is described as above.
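Note: blank spot per well as comparator with Hit at signal to blank ratio of 4 or more.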

B1: Fab VH1-46_IGHD6-6*01_IGHJ1*01_S104A & L6_IGKJ1*01 (Fab, V domains shown)
VH: QVQLVQSGAEVKKPGASVKVSCKASGYTFTSYYMHWVRQAPGQGLEWMGIINPSGGSTSYAQKFQGRVTMTRDTSTSTVYMELSSLRSEDTAVYYCAREEYSSASAEYFQHWGQGTLVTVSS
VL: not shown
notes: Expressed in E. coli as a Fab; CH1 with Flag and His tags comes from Plasmid A and the kappa CL from Plasmid C; also called IGHV1-46*01; IGHJ1*01 S104A with IGKV3-11*01
Consider B1, for which the ECL signal was 1290 in assay [1]; 9330 in assay [2]; 1300 in [3]; 1300 in [4]; 815 in [5]; 2130 in [6]. The ECL signal was determined as 862 in assay [7]; 830 in assay [8]; 1900 in [9]; 13600 in assay [10]; 1840 in [11]; 1540 in assay [12]. Besides, the ECL signal in assay [13] worked out at 611; in assay [14] it was 646; in assay [15], 660; in assay [16], 574; in [17], 2600; in [18], 14800. Moreover, the ECL signal stood at 2950 in assay [19]; 2440 in assay [20]; 3350 in [21]; 14300 in assay [22]; 3480 in assay [23]; 3530 in [24].

B2: Fab VH5-51_IGHD5-18*01>3_IGHJ4*01_G104T & V3-4_IGLJ1*01 (Fab, V domains shown)
VH: EVQLVQSGAEVKKPGESLKISCKGSGYSFTSYWIGWVRQMPGKGLEWMGIIYPGDSDTRYSPSFQGQVTISADKSISTAYLQWSSLKASDTAMYYCARRGYSYTYDYFDYWGQGTLVTVSS
VL: QTVVTQEPSFSVSPGGTVTLTCGLSSGSVSTSYYPSWYQQTPGQAPRTLIYSTNTRSSGVPDRFSGSILGNKAALTITGAQADDESDYYCVLYMGSGISYVFGTGTKVTVL
notes: Expressed in E. coli as a Fab; CH1 with Flag and His tags comes from Plasmid A and the lambda CL from Plasmid E; also called IGHV5-51*03; IGHJ4*01 G104T with IGLV8-61*01
B2: the ECL signal in [25] is 1120; in [26], 705; in assay [27] it was 5230; in assay [28], 841; in assay [29] it was 3990; in assay [30], 3430. Besides, the ECL signal in [31] stood at 29800; in [32], 3380.

These data come from patent US20120058906A1 (published 2012).
